Among the data in PMC7661507 are Kd, koff and kon values, retold here.

For test [1], the target named is recombinant wild-type human histone H1.0 (unlabeled) (human). Kind of test: single-molecule FRET; competition titration, freely diffusing molecules; constant 50 pM labeled ProTα and unlabeled H1 (1 to 50 nM), unlabeled ProTα varied; TBS, 230 mM ionic strength.
Test [2] has as its target H1 V104C/G194C labeled with Alexa Fluor 488/594 (human). Description: single-molecule FRET; freely diffusing molecules; labeled protein titrated with the unlabeled partner (labeled ProTα with unlabeled H1, labeled H1 with unlabeled ProTα); TBS, 208 mM ionic strength.
Test [3] deals with recombinant wild-type human histone H1.0 (unlabeled) (human). Description: single-molecule FRET; competition titration, freely diffusing molecules; constant 50 pM labeled ProTα and unlabeled H1 (1 to 50 nM), unlabeled ProTα varied; TBS, 165 mM ionic strength.
The target of test [4] is 1:1 complex of ProTα E56C/D110C Alexa488/594 and unlabeled H1 (human). Description: single-molecule FRET; freely diffusing molecules; unlabeled H1 titrated to 50 pM labeled ProTα fully saturated with unlabeled H1 (PH + H ⇌ PHH); TBS, 18 mM ionic strength.
Test [5] has the same target. Description: single-molecule FRET; freely diffusing molecules; unlabeled H1 titrated to 50 pM labeled ProTα fully saturated with unlabeled H1 (PH + H ⇌ PHH); TBS, 83 mM ionic strength.
Test [6] deals with ProTα E56C/D110C labeled with Alexa Fluor 488/594 (human). Kind of test: stopped-flow fluorescence; 2 nM labeled ProTα mixed with different concentrations of H1; TBS, 165 mM ionic strength; fit with kex = kon cH + KD kon.
Test [7] has as its target 1:1 complex of ProTα E56C/D110C Alexa488/594 and unlabeled H1 (human). Description: single-molecule FRET; freely diffusing molecules; unlabeled H1 titrated to 50 pM labeled ProTα fully saturated with unlabeled H1 (PH + H ⇌ PHH); TBS, 58 mM ionic strength.
The target in test [8] is ProTα E56C/D110C labeled with Alexa Fluor 488/594 (human). Description: single-molecule FRET; freely diffusing molecules; 50 pM labeled ProTα titrated with unlabeled H1; TBS, 330 mM ionic strength.
Test [9] has the same target. Kind of test: single-molecule FRET; freely diffusing molecules; 50 pM labeled ProTα titrated with unlabeled H1; TBS, 290 mM ionic strength.
The target of test [10] is ProTα E55C/D109C labeled with Alexa Fluor 488/594 (human). Description: single-molecule FRET; freely diffusing molecules; 50 pM labeled ProTα titrated with unlabeled H1; TBS, 200 mM ionic strength.
Test [11] deals with Avi-ProTα E56C/D110C, biotinylated, labeled with Cy3B/LD650 (human). The test is described as above.
The target of test [12] is ProTα E56C/D110C labeled with Alexa Fluor 488/594 (human). Kind of test: single-molecule FRET; freely diffusing molecules; 50 pM labeled ProTα titrated with unlabeled H1; TBS (10 mM Tris, 0.1 mM EDTA, KCl), 140 mM β-mercaptoethanol, 0.01% Tween 20; 165 mM ionic strength.
The target is the same in test [13]. Description: single-molecule FRET; freely diffusing molecules; 50 pM labeled ProTα titrated with unlabeled H1; TBS, 240 mM ionic strength.
Test [14] concerns the target ProTα E56C/D110C labeled with Cy3B/Abberior STAR635 (human). Description: single-molecule FRET; freely diffusing molecules; labeled protein titrated with the unlabeled partner (labeled ProTα with unlabeled H1, labeled H1 with unlabeled ProTα); TBS, 208 mM ionic strength.
Test [15] concerns the target ProTα S1C/D110C labeled with Alexa Fluor 488/594 (human). The description is as above.
For test [16], the target named is ProTα E56C/D110C labeled with Atto 550/647N (human). The test is described as above.
The target in test [17] is ProTα S1C/E55C labeled with Alexa Fluor 488/594 (human). The test is described as above.
The target of test [18] is ProTα E55C/D109C labeled with Alexa Fluor 488/594 (human). The description is as above.
The target of test [19] is ProTα S1C/D109C labeled with Alexa Fluor 488/594 (human). Described as above.
Test [20] concerns the target ProTα E56C/D110C labeled with Alexa Fluor 488/594 (human). The description is as above.
The target of test [21] is 1:1 complex of ProTα E56C/D110C Alexa488/594 and unlabeled H1 (human). Kind of test: single-molecule FRET; freely diffusing molecules; unlabeled H1 titrated to 50 pM labeled ProTα fully saturated with unlabeled H1 (PH + H ⇌ PHH); TBS, 43 mM ionic strength.
Test [22] addresses Avi-ProTα E56C/D110C, biotinylated, labeled with Cy3B/LD650 (human). Description: single-molecule FRET; biotinylated Avi-ProTα immobilised on a PEG/neutravidin surface, unlabeled H1 in solution; two-state model of time traces; TBS in D2O, 230 mM ionic strength.
For test [23], the target named is 1:1 complex of ProTα E56C/D110C Alexa488/594 and unlabeled H1 (human). Description: single-molecule FRET; rate coefficient of PH + H ⇌ PHH at 200 mM ionic strength; KD extrapolated from lower ionic strengths, kon^PHH assumed equal to kon^PPH.
Test [24] has the same target. Kind of test: single-molecule FRET; freely diffusing molecules; unlabeled H1 titrated to 50 pM labeled ProTα fully saturated with unlabeled H1 (PH + H ⇌ PHH); TBS, 13 mM ionic strength.
In test [25] the target is ProTα E56C/D110C labeled with Alexa Fluor 488/594 (human). Description: single-molecule FRET; freely diffusing molecules; 50 pM labeled ProTα titrated with unlabeled H1; TBS, 340 mM ionic strength.
In test [26] the target is 1:1 complex of ProTα E56C/D110C Alexa488/594 and unlabeled H1 (human). Description: single-molecule FRET; freely diffusing molecules; unlabeled H1 titrated to 50 pM labeled ProTα fully saturated with unlabeled H1 (PH + H ⇌ PHH); TBS, 8 mM ionic strength.
The target of test [27] is ProTα E56C/D110C labeled with Alexa Fluor 488/594 (human). Kind of test: single-molecule FRET; freely diffusing molecules; 50 pM labeled ProTα titrated with unlabeled H1; TBS, 180 mM ionic strength.
Test [28] concerns the target Avi-ProTα E56C/D110C, biotinylated, labeled with Cy3B/LD650 (human). Description: single-molecule FRET; biotinylated Avi-ProTα immobilised on a PEG/neutravidin surface, unlabeled H1 in solution; two-state model of time traces; TBS in D2O, 275 mM ionic strength.
Test [29] shares this target. Kind of test: single-molecule FRET; biotinylated Avi-ProTα immobilised on a PEG/neutravidin surface, unlabeled H1 in solution; two-state model of time traces; TBS in D2O, 230 mM ionic strength. This is another data set of the same source.
Test [30] shares this target. Kind of test: single-molecule FRET; biotinylated Avi-ProTα immobilised on a PEG/neutravidin surface, unlabeled H1 in solution; two-state model of time traces; TBS in D2O, 275 mM ionic strength. The source holds these as a separate data set.
In test [31] the target is 1:1 complex of ProTα E56C/D110C Alexa488/594 and unlabeled H1 (human). Kind of test: single-molecule FRET; freely diffusing molecules; unlabeled H1 titrated to 50 pM labeled ProTα fully saturated with unlabeled H1 (PH + H ⇌ PHH); TBS, 23 mM ionic strength.
Test [32] has the same target. Kind of test: single-molecule FRET; freely diffusing molecules; unlabeled H1 titrated to 50 pM labeled ProTα fully saturated with unlabeled H1 (PH + H ⇌ PHH); TBS, 33 mM ionic strength.

Sequence of recombinant wild-type human histone H1.0 (unlabeled) (natural protein) (P07305 2-194): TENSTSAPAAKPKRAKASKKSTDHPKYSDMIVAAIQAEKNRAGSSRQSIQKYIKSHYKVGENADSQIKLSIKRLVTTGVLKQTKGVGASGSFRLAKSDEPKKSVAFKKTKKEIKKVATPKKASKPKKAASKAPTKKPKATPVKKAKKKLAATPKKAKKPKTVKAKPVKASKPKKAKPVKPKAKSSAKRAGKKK
Sequence of recombinant wild-type human histone H1.0 (unlabeled) (human) (P07305 2-194): as above

Take “ProTα (unlabeled & NMR) (natural protein)”: the equilibrium dissociation constant (Kd) in test [1] came to 6.5 nM; in test [2], 3.5 nM; in test [3], 0.0058 nM.

For the substance “recombinant wild-type human histone H1.0 (unlabeled) (natural protein)”, the equilibrium dissociation constant (Kd) in [4] worked out at 710 nM; in test [5], 4100 nM; in test [7] it was 2800 nM; in test [8], 1400 nM; in [9] it was 230 nM; in test [10], 0.51 nM. Besides, the equilibrium dissociation constant (Kd) turned out to be 1.12 nM in test [11]; 0.0021 nM in [12]; 25 nM in test [13]; 1 nM in [14]; 2 nM in test [15]; 3.1 nM in test [16]. Further, the dissociation constant (Kd) in test [17] is 1.3 nM; in test [18], 1.3 nM; in [19], 2.3 nM; in test [20] it was 1 nM; in [21], 1800 nM; in [24], 540 nM. Besides, the equilibrium dissociation constant (Kd) was found to be 4000 nM in test [25]; 200 nM in test [26]; 0.037 nM in [27]; 59 nM in [28]; 2 nM in test [29]; 540 nM in test [31]. Further, the Kd in test [32] was determined as 1310 nM. The dissociation rate constant (koff) in [6] was 0.006 s⁻¹; in test [23] it was 6000 s⁻¹; in [28], 59 s⁻¹; in [29], 2.8 s⁻¹. The kon in test [6] was found to be 3.5e+09 M⁻¹ s⁻¹; in test [22] it was 1.4e+09 M⁻¹ s⁻¹; in test [28], 3.1e+09 M⁻¹ s⁻¹; in [29], 3.1e+09 M⁻¹ s⁻¹; in test [30], 1.01e+09 M⁻¹ s⁻¹.
